Results on five sequences are retold here after patent US10561706B2, “Isolated polypeptide and compositions comprising same” (B. G. NEGEV TECHNOLOGIES AND APPLICATIONS LTD., AT …, priority 2015, dated 2020).

Assay [1] addresses T1, SOD1^G93A (Homo sapiens, UniProt P00441, G94A).
T1 construct: 6His (N); made in house; host or cells: E. coli BL21
As to the kind of experiment: TEM analysis of SOD1^G93A aggregate morphology. It is filed as biochemical. Particulars: for morphology of SOD1^G93A aggregates by TEM versus SOD1^G93A alone: co-incubation with peptide, end of aggregation assay (FIG. 4B); for morphology of SOD1^G93A aggregates by TEM: 64 h at 37° C. On the procedure: Samples for TEM imaging were prepared as follows: at the end of the aggregation assay, 2.5 μl samples (diluted 5-fold) were deposited on a carbon-coated copper 300 mesh. After 1 min, the excess liquid was carefully blotted by a filter paper. Followed 1 min drying at the ambient temperature, 5 μl of 2% uranyl acetate was added. After 1 min, the excess of the salt solution was carefully removed with a filter paper. The imaging was performed using a Tecnai G2 12 BioTWIN (FEI) transmission electron microscope with an acceleration voltage of 120 kV. Depending on the aggregate size, different magnifications were used. The visible features were sensitive to the electron beam exposure, indicating their organic origin.
(§1) The effect of the binding of SOD1-derived peptides to misfolded SOD1 on kinetics of SOD1 aggregation was tested. The time course of SOD1^G93A aggregation was followed by monitoring the fluorescence of a thioflavin T (ThT) probe.

Assay [2] concerns the target T1, SOD1^G93A. As to the kind of experiment: ThT aggregation assay of SOD1^G93A with SOD1-derived peptides. It is filed as biochemical. Particulars: for ThT response / amyloid-like aggregation of SOD1^G93A on co-incubation with peptide: SOD1^G93A 50 μM, up to 64 h. Here is the method:
Prior to the aggregation assay, all mixtures containing protein and/or peptide were filtered through a 0.22 μm Millex-GV (PVDF) syringe filter, 4 mm (Millipore, USA). SOD1^G93A (50 μM) or peptide (600 μM) were incubated in 200 μl of 20 mM […] buffer, pH 7.0, 0.1 M NaCl, 5 mM EDTA, 1 mM TCEP, and 1% DMF in the presence of 50 μM Thioflavin T (Sigma Aldrich, Israel) in a black 96-well plate at 37° C. with continuous shaking (set to fast) using a SpectraMax Paradigm (Molecular Devices) ELISA reader. The fluorescence (Exc. 440 nm; Em. 485 nm) was measured at 5 min intervals.
as §1

The target in assay [3] is T1, SOD1^G93A. The assay can be described thus: Peptide binding to fluorescently labeled SOD1^G93A by microscale thermophoresis (MST). The settings on record: SOD1^G93A 300 nM, 1.5 h at r.t., peptide 0-100 μM. The text has this: (§2) Peptides were synthesized by GL Biochem Ltd. (Shanghai, China). Peptide identity and purity (>90%) was confirmed by MS and HPLC analyses. For microscale thermophoresis (MST) analysis, the proteins (SOD1^WT and SOD1^G93A) were labeled with BLUE fluorescent dye NT-495-NHS (lysine chemistry) using a Monolith NT protein labeling kit Blue-NETS (Nano Temper Technologies, Munchen, Germany) at a protein (monomer):dye ratio of 1:3 as recommended by the manufacturer.
(§3) The assessment of peptide binding to the proteins was carried out using Monolith NT.115 (NanoTemper Technologies, Munchen, Germany). […] The binding data were analyzed by a non-linear regression using a logistic (three parameter) function implemented in Prism6 (GraphPad) program.
(§4) The binding of synthetic peptides to fluorescently labeled SOD1^WT or SOD1^G93A was assessed using a microscale thermophoresis technique (MST). Two overlapping peptides, designated SE-11 (SEQ ID NO: 6) (SOD1 aa. 90-109, […]) and SE-12 (SEQ ID NO: 7) (SOD1 aa. 106-125, […]), inflicted a specific, dose-dependent increase in the fluorescence of the target proteins (FIGS. 3A-D).
On the technique in general: In MST a laser heats a spot of the sample, and binding alters the fluorescence response.

For assay [4], the target named is T2, SOD1^WT (Homo sapiens, UniProt P00441).
T2 construct: 6His (N); made in house; host or cells: E. coli BL21
T2 sequence (P00441 whole entry): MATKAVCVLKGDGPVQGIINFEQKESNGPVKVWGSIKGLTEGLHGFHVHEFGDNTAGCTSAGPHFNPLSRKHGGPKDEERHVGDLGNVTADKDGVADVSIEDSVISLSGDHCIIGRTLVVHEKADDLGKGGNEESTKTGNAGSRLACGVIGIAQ
As to the kind of experiment: Peptide binding to fluorescently labeled SOD1^WT by microscale thermophoresis (MST). Particulars: SOD1^WT 200 nM, 1.5 h at r.t., peptide 0-100 μM.
Source text: as §2, §3, §4

The target in assay [5] is T2, SOD1^WT. As to the kind of experiment: Immunoprecipitation (B8H10 mAb) analysis of SOD1^WT misfolding. It is filed as biochemical. The settings on record: peptide 600 μM, 4 or 37° C.; effect more prominent at 4° C. Here is the method: Purified recombinant SOD1^G93A or SOD1^WT proteins […] were incubated for 4 h in 50 mM Tris-HCl buffer, pH 7.4, 150 mM NaCl, 1 mM EDTA, in the presence or absence of peptide SE-12 (SEQ ID NO: 7) (600 μM) at 4 or 37° C. After incubation, 10 μg of SOD1 proteins were transferred into immunoprecipitation (IP) buffer (50 mM Tris-HCl, pH 7.4, 150 mM NaCl, 1 mM EDTA, and 0.5% Nonidet P-40 plus protease inhibitors) and incubated at 4° C. overnight with B8H10 monoclonal antibody (MediMabs) crosslinked to protein G beads (Dynabeads, Invitogen) using dimethyl pimelimidate (Pierce) according to the manufacturer's instructions. The beads were magnetically isolated and washed three times with IP buffer. Samples were eluted by boiling in 2× sample buffer. Both bound and unbound IP fractions were then separated by SDS-PAGE, transferred to a nitrocellulose membrane and probed with goat anti-SOD1 antibody (C-17; Santa Cruz Biotechnology).
To test the function of the exposed ^106LSGDHC^111 epitope on misfolding of other SOD1 molecules, the effect of the SE-12 (SEQ ID NO: 7) peptide on SOD1 misfolding was tested using immunoprecipitation with a mAb (B8H10) that specifically recognizes misfolded SOD1. […] The effect of the peptide was more prominent at 4° C., when the intrinsic rate of SOD1^WT misfolding is low, than at 37° C. […]

Setting [6] is: 1:12 SOD1^G93A:peptide molar ratio.

T1 sequence (P00441 2-154 G94A): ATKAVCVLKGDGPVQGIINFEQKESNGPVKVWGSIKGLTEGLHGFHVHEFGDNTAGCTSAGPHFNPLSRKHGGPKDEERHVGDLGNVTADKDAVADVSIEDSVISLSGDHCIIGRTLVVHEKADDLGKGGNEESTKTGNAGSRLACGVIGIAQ

Regarding “DKDGVADVSIEDSV (listed as Homo sapiens) [SE-20, SOD1-derived peptide]”, in the assay with SOD1^G93A [1], the “morphology of SOD1^G93A aggregates by TEM versus SOD1^G93A alone” value (shortened to “morphology … by TEM versus SOD1^G93A alone”) is recorded as “morphology was different”. The “ThT response / amyloid-like aggregation of SOD1^G93A on co-incubation with peptide” value (“ThT response / amyloid-like aggregation” below) in the assay with SOD1^G93A [2] (37° C., continuous shaking) is recorded as “formation of amyloid-like (ThT-responsive) aggregates”.

As to “DKDGVADVSIEDSVISLSGD (listed as Homo sapiens) [SE-11, 20-mer peptide, SOD1 aa; 90-109]”, the “morphology of SOD1^G93A aggregates by TEM” value is listed as “large spherulites (0.5-1.0 μm diameter)” in the assay with SOD1^G93A [1] (setting [6]) and “suppressed the formation of characteristic fibril-like aggregates” in the assay with SOD1^G93A [1] (low peptide:SOD1 molar ratio (1:0.2 SOD1^G93A:peptide)). Also, the “ThT response of SOD1^G93A” value with SOD1^G93A [2] (low peptide:SOD1 molar ratios, 37° C., continuous shaking) is recorded as “inhibited the ThT response of SOD1^G93A”; with SOD1^G93A [2] (peptide:SOD1 molar ratios higher than 3, compared to SOD1^G93A alone) it was “significantly enhanced ThT response”. Also, the “change in fluorescence of labeled SOD1^G93A (peptide binding)” value with SOD1^G93A [3] is on record as “effect was obtained”. For the same sequence, in the assay with SOD1^WT [4], the “change in fluorescence of labeled SOD1^WT (peptide binding)” value is “only with SOD1^G93A”.

In the case of “EDSVISLSGDHCIIGRT (listed as Homo sapiens) [SE-21, SOD1-derived peptide]”, the “morphology … by TEM versus SOD1^G93A alone” value with SOD1^G93A [1] was “different morphology (size)”. For the same sequence, the “ThT response / amyloid-like aggregation” value with SOD1^G93A [2] (37° C., continuous shaking) is “did not prevent aggregation”.

Consider “IIGRTLVVHEKADD (listed as Homo sapiens) [SE-19, SOD1-derived peptide]”, for which the “morphology … by TEM versus SOD1^G93A alone” value with SOD1^G93A [1] is reported as “morphology was different”. Moreover, the “ThT response / amyloid-like aggregation” value with SOD1^G93A [2] (37° C., continuous shaking) was “formation of amyloid-like (ThT-responsive) aggregates”.

In the case of “LSGDHCIIGRTLVVHEKADD (listed as Homo sapiens) [SE-12, 20-mer peptide, SOD1 aa; 106-125]”, in the assay with SOD1^G93A [1] (setting [6]), the “morphology of SOD1^G93A aggregates by TEM” value is “amorphous aggregates were detected by TEM”. Also, the “ThT response / amyloid-like aggregation” value in the assay with SOD1^G93A [2] (37° C., continuous shaking) is “inhibited the SOD1^G93A-triggered ThT response and fibril formation in a dose-dependent manner”. The “amount of misfolded SOD1^WT immunoprecipitated by B8H10” value with SOD1^WT [5] is reported as “significantly increased the amount of accumulated misfolded species”. The “change in fluorescence of labeled SOD1^G93A (peptide binding)” value with SOD1^G93A [3] is recorded as “increase in fluorescence was observed”. Further, the “change in fluorescence of labeled SOD1^WT (peptide binding)” value with SOD1^WT [4] was “increase in fluorescence was observed”.
